T1: dog iRhom2 full length wild type, C-terminally tagged with 3 consecutive copies of the T7 epitope (dog, UniProt Q00M95 1-827)
T1 construct: whole, on cells; also called Dog-iR2-FL-WT-T7
T1 sequence: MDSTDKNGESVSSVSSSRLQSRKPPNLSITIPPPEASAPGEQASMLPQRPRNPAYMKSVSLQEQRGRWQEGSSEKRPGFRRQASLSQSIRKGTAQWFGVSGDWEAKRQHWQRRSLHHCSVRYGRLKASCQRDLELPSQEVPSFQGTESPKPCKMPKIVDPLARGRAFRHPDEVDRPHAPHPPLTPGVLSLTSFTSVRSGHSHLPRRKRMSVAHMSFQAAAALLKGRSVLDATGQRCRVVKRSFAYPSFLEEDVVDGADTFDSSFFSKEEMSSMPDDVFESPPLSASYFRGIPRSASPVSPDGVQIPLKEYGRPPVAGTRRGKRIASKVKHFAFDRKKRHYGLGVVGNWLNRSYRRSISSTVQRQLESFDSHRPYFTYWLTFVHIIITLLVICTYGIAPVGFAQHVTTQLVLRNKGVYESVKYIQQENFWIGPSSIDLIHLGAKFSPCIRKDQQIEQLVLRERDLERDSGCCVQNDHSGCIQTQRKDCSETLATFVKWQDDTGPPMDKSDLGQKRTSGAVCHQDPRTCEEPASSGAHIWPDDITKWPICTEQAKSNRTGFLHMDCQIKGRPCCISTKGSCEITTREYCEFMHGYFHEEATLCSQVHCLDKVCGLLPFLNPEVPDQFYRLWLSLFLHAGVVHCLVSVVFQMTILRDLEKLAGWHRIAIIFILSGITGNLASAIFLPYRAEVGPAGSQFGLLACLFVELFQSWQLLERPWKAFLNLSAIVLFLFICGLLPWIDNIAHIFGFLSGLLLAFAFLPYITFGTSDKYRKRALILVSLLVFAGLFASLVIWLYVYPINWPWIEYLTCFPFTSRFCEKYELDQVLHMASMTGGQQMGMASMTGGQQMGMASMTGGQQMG

B1: antibody 43 (antibody, V domains shown)
VH: QVALKESGPGILQPSQTLSLTCSFSGFSLSTFGMGVGWIRQSSGKGLEWLANIWWDDDKYYNPALKSRLTISKDASKNQAFLKIANVDTADTATYYCARIGNYGSNYWYFDVWGTGTTVTVSS
VL: QIVLTQSPAIMSASPGERVTMTCSANSRISYMYWYQQKPGSSPRLLIYDTSNLASGVPVRFSGSGSGTSYSLTISRMEAEDAATYNCQQWSSYPLTFGAGTKLELK
notes: Mouse IgG, kappa light chain; also called clone #43
B2: antibody 44 (antibody, V domains shown)
VH: QVTLKESGPGILQPSQTLSLTCSFSGFSLSTFGMGVGWIRQPSEKGLEWLAHIWWDDDKYYNPALKSRLTISKDTSKNQIFLKITNVDTAETATYYCSRIGNYGSNYWYFDVWGTGTTVTVSS
VL: QIVLTQSPAVMSASPGEKVTMTCTASSSVYYMYWYQQTPGSSPRLLIYDTSNLASGVPVRFSGSGSGTSYSLTISRMEAEDAATYYCQQWNTYPLTFGAGTKLELK
notes: Mouse IgG, kappa light chain; also called clone #44; m44
B3: antibody 42 (antibody, V domains shown)
VH: QVTLKESGPGILQPSQTLSLTCSLSGFSLSTFGRGVGWIRQPSGKGLEWLAHIWWDDEKYYNPALKSRLTISKDTSKNQVFLRIANVDTADTATYYCARIQNYGSNYWYFDVWGTGTTVTVSS
VL: LIVLTQSPAIMSASPGEKVTMTCGATSRISYMFWYQQKPGSSPRVLIYDTSNLASGVPVRFSGSGSGTSYSLTISRVEAEDVATYYCQQWNSYPLTFGAGTKLELK
notes: Mouse IgG, kappa light chain; also called clone #42; m42
B4: antibody 54 (antibody, V domains shown)
VH: QVTLKESGPGILQPSQTLSLTCSFSGFSLSTFGLGVGWIRQPSGKGLECLAHIWWDDDKYSNPALKSRLTISKDTSKNQVFLKIANVDSADTATYFCARILNYGSNYWYFDVWGTGTTVTVSS
VL: QIVLTQSPALMSASPGEKVTMTCSASSSISYMYWYQQKPGSSPRLLIYDTSNLASGVPVRFSGSGSGTSFSLTVSRMEAEDAATYYCQQWNSYPLTFGAGTKLELK
notes: Mouse IgG, kappa light chain; also called clone #54
B5: antibody 57 (antibody, V domains shown)
VH: QVTLKESGPGILQPSQTLSLTCSFSGFSLSTFGMGVGWIRQPSGKGLEWLAHIWWDDDKYYNPALKSRLTISKDTSKNQIFLKIANVDTADSATFYCARIENYGSNYWYFDVWGTGTTVTVSS
VL: QIVLTQSPAIMSASPGEKVTMTCSASSSVSYMYWYQQKPGSSPRVLIYDTSNLASGVPVRFSGSGSGTSYSLTVSRMEAEDAATYYCQQWNSYPLTFGAGTKLELK
notes: Mouse IgG, kappa light chain; also called clone #57
B6: antibody 49 (antibody, V domains shown)
VH: QVTLKESGPGILQPSQTLSLTCSFSGFSLSTFGMGVGWIRQPSGKGLEWLAHIWWDDDKYYNPALQSRLTVSKDTAKNQVFLKIANVDTADTAIYYCARVGNYGSNYWYFAVWGTGTTVTVSS
VL: QIVLTQSPAIMSASPGEKVTMTCSASSSVSYMYWYQQKPGSSPRLLIYDTSNLASGVPVRFSGSGSGTSYSLTISRMEAEDAATYYCQQWNSYPLTFGAGTKLELK
notes: Mouse IgG, kappa light chain; also called clone #49
B7: antibody 56 (antibody, V domains shown)
VH: QVTLKESGPGILQPSQTLSLTCSFSGFSLSTFGMGVGWIRQPSGKGLEWLTNIWWDDDKYYNSVLKSRLTISKDTSKNQVFLKIANVDTADTATYYCARIAAYGSNYWYFDVWGTGTTVTVSS
VL: QIVLTQSPAIMSASPGEKVTMTCSASSSVSYMYWYQQKPGSSPRVLIYDTSNLSSGVPVRFSGSGSGTSYSLTISRMEAEDAATYYCQQWSSYPLTFGAGTKLELK
notes: Mouse IgG, kappa light chain; also called clone #56
B8: antibody 22 (antibody, V domains shown)
VH: QVTLKESGPGILQPSQTLSLTCSFSGFSLSTFGMGVGWIRQPSGKGLEWLAHIWWDDEKYYNSALKSRLTISKATSKNQVFLKIANVDTADTATYYCARISNYGSNYWYFNVWGTGTTVTVSS
VL: QVVLTQSPALMSASPGEKVTMTCSAGSSVSYMYWYQQKPGSSPRVLIYDTSNLASGVPARFTGSGSGTSYSLTISRMEAEDAATYYCQQWNSYPLTFGAGTKLELK
notes: Mouse IgG, kappa light chain; also called clone #22; m22
B9: antibody 34 (antibody, V domains shown)
VH: QVTLKESGPGILQPSQTLSLTCSFSGFSLSTFSLGVGWIRQSSGKGLEWLAHIWWDDEKYYNPALKSRLTISKDTSKNQVFLKIANVDAADTATYYCARAYYSKSYYALDYWGQGTSVTVSS
VL: DIQMTQSPSSLSASLGERVSLTCRASQEISGYLSWLQQKPDGTIKRLIYAASTLDSGVPKRFSGSRSGSDYSLAISSLESEDFADYYCLQYANFPFTFGSGTKLEIK
notes: Mouse IgG, kappa light chain; also called clone #34; m34
B10: antibody 48 (antibody, V domains shown)
VH: QVQLQQSGTELVRPGTSVKVSCKASGYAFTNYLIEWVKQRPGQGLEWIGVINPGSGFTKYNEKFKGKATLTADKSSSTVYMHLSSLTSEDSAVYFCARGLYRAMDYWGQGTSVTVSS
VL: DIQMTQSPASQSASLGESVTITCLASQTIATWLAWYQQKPGKSPQLLIYGATTLADGVPSRFSGGGSGTKFSFKISSLQAEDFVSYYCQQLYSTPYTFGGGTKLEIK
notes: Mouse IgG, kappa light chain; also called clone #48; purified antibody 48
B11: antibody 47 (antibody, V domains shown)
VH: QVQLQQSGAELVRPGTSVKVSCKASGYAFTNYLIEWVKQRPGQGLEWIGVINPGSGFTNYNEKFKGKAILNADKSSSTAYMQLISLTSEDSAVYFCARDLKRAMDHWGQGTSVTVSS
VL: DIQMTQSPASQSASLGESVTITCLASQTIGTWLAWYQQKPGKSPQLLIHAATSLADGVPSRFSGSGSGTKFSFKISSLQAEDFVSYYCQQIYSSPYTFGGGTKLEIK
notes: Mouse IgG, kappa light chain; also called clone #47
B12: antibody 50 (antibody, V domains shown)
VH: QVQLQQSGAELVRPGASVKVSCKASGYAFSNYLIEWVKQRPGQGLEWIGVINPGSGFTKYNEKFKGKATLTADKSSSTAYMQLSSLTSEDSAVYFCARGLYRAMDYWGQGTSVTVSS
VL: DIQMTQSPASQSASLGESVTITCLASQTIGTWLAWYQQKPGKSPQLLIYAAASLADGVPSRFSGGGSGTKFSFKISSLQAEDFVNYYCQQIYSTPYTFGGGTKLEIK
notes: Mouse IgG, kappa light chain; also called clone #50; purified antibody 50
B13: antibody 51 (antibody, V domains shown)
VH: QVQLQQSGAELVKPGASVKISCKASGYTFSNYWMNWVKQRPGKGLEWIGQIYPGDGDTKYNGKFKNKATLTADKSSSTAYMQFSSLTSEDSAVYFCARGDLVFVYWGLGTLVTVSA
VL: DVQITQSPSYLAVSPGETITINCRASKNIRKYLAWYQEKPGKTNKLLIYSGSTSQSGVPSRFSGSGSGTDFTLTISSLEPEDFAMYYCQQHNEYPYTFGGGTKLEIK
notes: Mouse IgG, kappa light chain; also called clone #51
B14: antibody 46 (antibody, V domains shown)
VH: QVTLKESGPGILQPSQTLSLTCSFSGFSLSTFGMGVGWIRQPSGKGLEWLAHIWWDDDNYYNQALKSRLTISKDNTKNQVFLNIANVDTADTATYYCARIRSYDYDVRYAMDYWGQGTSVTVSS
VL: DIKMTQSPSSMYASLRERVTITCKASQDINSYLSWFQQKPGKSPKTLIYRANRLVDGVPSRFSGSGSGQDYSLTISSLEYEDLGIYYCQQYYEFPLTFGAGTRLELK
notes: Mouse IgG, kappa light chain; also called clone #46

molecular target: T1, dog iRhom2 full length wild type, …; assay: FACS, MEF-DKO-Dog-iR2-FL-WT-T7 cells
Method: In brief, immortalized MEF-DKO-EV control cells, MEF-DKO-rhesus-iR2-FL-WT-T7 cells, MEF-DKO-cyno-iR2-FL-WT-T7 cells, MEF-DKO-dog-iR2-FL-WT-T7 cells and MEF-DKO-rabbit-iR2-FL-WT-T7 cells, as well as their respective iRhom1 counterparts, were harvested with 10 mM EDTA in PBS, washed and resuspended in FACS buffer (PBS, 3% FBS, 0.05% sodium azide), and seeded in Nunc U-bottom 96-well plates (Thermo Fisher Scientific, USA) at approximately 3×10⁵ cells per well. To pellet cells and remove supernatants, the plates were centrifuged at 1,500 rpm and 4° C. for 3 minutes. For primary staining, cells were resuspended in 100 μl per well of either FACS buffer alone (controls), mouse monoclonal anti-T7 IgG (Merck Millipore, USA) at 3 μg/ml FACS buffer or the antibodies of the present disclosure also at 3 μg/ml FACS buffer and incubated on ice for 1 hour. Afterwards, plates were centrifuged at 1,500 rpm and 4° C. for 3 minutes and washed twice with 200 μl per well of FACS buffer. For secondary staining, cells were spun down and resuspended in 100 μl per well of PE-conjugated goat anti-mouse IgG F(ab′)2 detection fragment (Dianova, Germany) diluted 1:100 in FACS buffer. Protected from light, the cell suspensions were incubated on ice for 1 hour. Plates were then centrifuged at 1,500 rpm and 4° C. for 3 minutes and washed three times with 200 μl per well of FACS buffer. Finally, cells were resuspended in 150 μl per well of FACS buffer and analyzed using a BD Accuri™ C6 Plus flow cytometer (Becton Dickinson, Germany).

Binder | binding result
B1 | binds
B2 | binds
B3 | binds
B4 | binds
B5 | binds
B6 | binds
B7 | binds
B8 | binds
B9 | binds
B10 | binds
B11 | binds
B12 | binds
B13 | binds
B14 | binds
